Test results taken from US20230002494A1 (SANYOU BIOPHARMACEUTICALS, published 2023).

Columns and labels:
[1] = target: T1, human PD-L1 (full-length, on cells) (human, UniProt Q9NZQ7 19-290); assay: FACS on human PD-L1-CHO cells, PE anti-human IgG Fc
T1 construct: whole, on cells; Expressed on CHO-s cells; also called human PD-L1-CHO; PD-L1-CHO
Description: 1) collecting the cultured human PD-L1-CHO cells, centrifuging the collected cells at 300 g to remove the supernatant, resuspending the cells in a formulated FACS buffer and counting the cells, and adjusting the density of the cell suspension to 2×10⁶ cells/mL;

[2] = target: T1, human PD-L1 (full-length, on cells); assay: FACS, human PD-L1-CHO cells
[3] = target: T2, B7-DC protein, Sino Biological 10292-H08H-B (UniProt Q9BQ51 20-219); assay: ELISA, plate coated with 2 µg/mL protein, anti-human IgG Fc-HRP, OD450; parameters: concentration or dose not given beside the values
T2 construct: Bought protein
T2 sequence (looked up): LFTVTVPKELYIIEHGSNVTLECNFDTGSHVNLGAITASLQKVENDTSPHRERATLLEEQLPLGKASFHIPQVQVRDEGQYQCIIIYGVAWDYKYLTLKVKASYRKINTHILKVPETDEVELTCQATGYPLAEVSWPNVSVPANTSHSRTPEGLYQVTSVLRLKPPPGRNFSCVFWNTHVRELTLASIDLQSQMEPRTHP
Protocol: (§1) The specific method is as follows:
(§2) one day prior to the experiment, 30 μL of protein diluents such as B7-H1 (i.e., PDL1), B7-H2, B7-H3, B7-H4 and B7-DC (the above-mentioned proteins are all purchased from Sino Biological Co., Ltd., with Cat. Nos. 10084-HNAH, 11559-H08H, 11188-H08H, 10738-H08H and 10292-H08H-B, respectively) are added to an ELISA plate at a final concentration of 2 μg/mL, and incubated at 4° C. overnight; the next day, the ELISA plate is rinsed 3 times with PBST, then blocked with 150 μL of 5% PBSM, and incubated at room temperature for 2 hours; the ELISA plate is rinsed 3 times with PBST again, and then 30 μL of candidate antibody and control antibody diluents are added thereto, and the plate is incubated at room temperature for 1 hour; the plate is rinsed 3 times with PBST, and an anti-human IgG Fc-HRP second antibody diluted at 1:7000 is added thereto (30 μL/well), and the plate is incubated at room temperature for 30 minutes; the plate is rinsed 6 times with PBST, then TMB is added thereto for color development, and finally, 2M HCl is added to stop the reaction.

[4] = target: T3, B7-H3 protein, Sino Biological 11188-H08H (UniProt Q5ZPR3 29-461); assay: as above; parameters: concentration or dose not given beside the values
T3 construct: Bought protein
T3 sequence (looked up): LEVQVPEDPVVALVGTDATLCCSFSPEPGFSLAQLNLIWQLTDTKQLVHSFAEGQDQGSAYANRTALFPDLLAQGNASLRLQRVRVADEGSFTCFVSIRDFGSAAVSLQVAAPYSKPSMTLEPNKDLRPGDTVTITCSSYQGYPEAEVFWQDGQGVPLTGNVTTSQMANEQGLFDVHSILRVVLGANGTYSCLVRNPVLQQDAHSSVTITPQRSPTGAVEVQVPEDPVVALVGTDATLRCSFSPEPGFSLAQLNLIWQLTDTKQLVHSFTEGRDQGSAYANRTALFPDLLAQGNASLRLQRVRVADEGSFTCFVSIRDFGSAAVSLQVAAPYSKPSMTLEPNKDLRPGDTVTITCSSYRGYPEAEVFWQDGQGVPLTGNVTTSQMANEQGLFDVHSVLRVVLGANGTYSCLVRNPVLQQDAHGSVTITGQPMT
Protocol: as §1, §2

[5] = target: T4, B7-H4 protein, Sino Biological 10738-H08H (UniProt Q7Z7D3 25-258); assay: as above; parameters: concentration or dose not given beside the values
T4 construct: Bought protein
T4 sequence (looked up): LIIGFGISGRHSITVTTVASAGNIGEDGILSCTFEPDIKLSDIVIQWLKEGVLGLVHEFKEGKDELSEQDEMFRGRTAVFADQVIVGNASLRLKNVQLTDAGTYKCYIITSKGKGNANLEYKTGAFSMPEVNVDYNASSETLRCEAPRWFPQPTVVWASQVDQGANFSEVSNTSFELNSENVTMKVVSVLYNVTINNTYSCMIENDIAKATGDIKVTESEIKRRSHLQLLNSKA
Protocol: as §1, §2

[6] = target: T5, B7-H2 protein, Sino Biological 11559-H08H (UniProt O75144 19-258); assay: as above; parameters: concentration or dose not given beside the values
T5 construct: Bought protein
T5 sequence (looked up): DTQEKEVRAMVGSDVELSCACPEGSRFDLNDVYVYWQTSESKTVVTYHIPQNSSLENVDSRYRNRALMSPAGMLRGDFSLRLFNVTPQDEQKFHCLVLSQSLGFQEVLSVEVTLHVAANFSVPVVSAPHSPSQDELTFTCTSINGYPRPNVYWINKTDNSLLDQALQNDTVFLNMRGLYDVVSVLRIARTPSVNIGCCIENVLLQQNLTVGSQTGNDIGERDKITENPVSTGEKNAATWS
Protocol: as §1, §2

[7] = target: T1, human PD-L1 (full-length, on cells); assay: FACS competition, human PD-L1-CHO cells, competitor biotin-labeled CD80 1 µg/mL
[8] = target: T6, rhesus monkey PD-L1 (full-length, on CHO-s cells) (rhesus monkey, UniProt F6VEW6 19-290); assay: FACS, monkey PD-L1-CHO cells
T6 construct: whole, on cells; also called monkey PD-L1-CHO
Description: In order to evaluate the cross-reactivity of the VHH-Fc candidate antibodies to monkey PD-L1 and mouse PD-L1, an FACS method is used to detect the binding activity thereof to the mouse and rhesus monkey PD-L1 protein on cells.

[9] = target: T1, human PD-L1 (full-length, on cells); assay: FACS competition, human PD-L1-CHO cells, competitor biotin-labeled PD-1-Fc 1 µg/mL
[10] = target: T7, mouse PD-L1 (full-length, on CHO-s cells) (mouse, UniProt Q9EP73 19-290); assay: FACS, mouse PD-L1-CHO cells
T7 construct: whole, on cells; also called mouse PD-L1-CHO
T7 sequence (Q9EP73 19-290): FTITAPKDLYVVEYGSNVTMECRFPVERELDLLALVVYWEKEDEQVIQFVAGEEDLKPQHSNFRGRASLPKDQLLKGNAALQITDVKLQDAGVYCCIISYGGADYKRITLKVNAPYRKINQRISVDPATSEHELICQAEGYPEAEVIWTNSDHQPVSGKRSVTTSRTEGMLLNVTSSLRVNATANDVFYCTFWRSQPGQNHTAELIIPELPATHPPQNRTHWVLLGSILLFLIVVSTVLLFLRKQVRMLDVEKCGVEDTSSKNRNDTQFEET

T1 sequence (Q9NZQ7 19-290): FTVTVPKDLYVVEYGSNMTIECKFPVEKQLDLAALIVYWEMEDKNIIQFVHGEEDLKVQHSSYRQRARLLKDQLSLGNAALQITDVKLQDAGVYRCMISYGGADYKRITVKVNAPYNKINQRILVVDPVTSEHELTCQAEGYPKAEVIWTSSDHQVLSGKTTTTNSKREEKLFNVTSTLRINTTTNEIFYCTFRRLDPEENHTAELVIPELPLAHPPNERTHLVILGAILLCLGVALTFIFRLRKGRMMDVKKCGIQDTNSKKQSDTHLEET

EC50 (read off the curve) [1]: ~0.1 µg/mL | EC50 [2]: 0.39 µg/mL | IC50 [7]: 0.708 µg/mL | EC50 [8]: 0.25 µg/mL | IC50 [9]: 0.41 µg/mL | binding result [10]: binds
B1: NB22D-21 chimeric VHH-Fc antibody (Fc fusion)
chain: EVQVQESGGGLVQAGGSLRLSCAHSRTDSNINGMHWYRQAPGKQRDWVGTIFIDGNTIVTDSVKGRFTISRDNAKNTLYLQMNTLKPEDTAVYFCAADVSGYGRAWGQGTQVTVSS
notes: also called parental antibody NB22D-21; parent molecule; not shown: human IgG1 Fc fragment, its N-terminus linked to the C-terminus of the VHH
binding result [3]: no binding (tested: 10.00 (no unit on the sheet)) | binding result [4]: no binding (tested: 10.00 (no unit on the sheet)) | binding result [5]: no binding (tested: 10.00 (no unit on the sheet)) | binding result [6]: no binding (tested: 10.00 (no unit on the sheet))
